Experimental data reported in the domain aggregation screens of Martell et al. (2025).

Test: soluble fraction after stress (log2 fold change); higher = more stays soluble; pooled small domains, quantitative proteomics
Details: stress: pH 4
In short: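 Aggregation propensity is estimated from the fold change in each domain's soluble amount after acid stress. Pooled small-domain libraries were stressed at pH 4, and higher log2 values mean more stayed soluble.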
For “HMGVRLAPEVDRIPYGQMHPNLKKVKDLYEASYKAYVQALSSGNQALAKEKLEEFQSTKARYQRALSAYT”, the “soluble fraction (log2)” value was 0.195.
For “HMNASTVTLENFEGAKYDDVYGKYDYQFSVTYEQTDKYESGVIISQKPEAGTKIIKGSQVSLVVAT”, the “soluble fraction (log2)” value was 0.101.
With “HMDVFTAKTASHIQELREKLGQQAVFGRSDVQNALGLKATRSSALLREMAEHGIIEPVTGYGKGRYHFRS” the “soluble fraction (log2)” value was 0.361.
With “HMTAQASDIEKVLQVIETLGFRGHTLPGENRTAIGVTGNRGSIDPAHFENLPGVADAIRVTKPY” the “soluble fraction (log2)” value was -0.292.
With “HMHKIRRQTKITKSLLDQIEGIGSSRKKALLNHFGSAKAVGEAGETDLGTVKGISNSLAKKIYDFFHAT” the “soluble fraction (log2)” value was 0.281.
For “HMTELLTPKQRQVFELALREGYYDVPRRTSITEMARLLGVAKSTLSAQMHRMEATVMSTFAEEIRKQ”, the “soluble fraction (log2)” value was 0.0506.
With “HMDPTEPLFVGVVTAEPYLNIREYPTTQSKDLGDLFPGMHVNVYEIVPNWYRIDDGWVASAWVKRDWGGG” the “soluble fraction (log2)” value was -0.314.
In the case of “HMFLSSEERRERIIEVLRQQDEVTVVELSHRLGVSEVTTRKDLQQLEEQGYLTRVRGGAVVSGRGQL”, the “soluble fraction (log2)” value was -0.458.
With “HMELNDEELIKGIQELLTKIGYDPGEINGVLGIKTSSAISAFQQSRNKAITGEADLDLLVQLQIELRKITT” the “soluble fraction (log2)” value was -1.32.
With “HMKDLSMPDVMGSSLNDAKKALTELGIMDITVRYVESGSSEGSIVGMEPPAGSKFAADGKVVLQVSSGS” the “soluble fraction (log2)” value was 0.0083.
For “HMGETISVPAVRSLAYDRAVDMLTAEGLKGIVADSVYDNRTQPGTVIEQNPKAGTIVKEGREVYLTINA”, the “soluble fraction (log2)” value was 0.0278.
For “HMSVLDEVRKLSFHQRNAVFLFYFEGYSMKEIAQIFHVKEGTVSSWLTRARKQLRKQMEEEVLYDESLP”, the “soluble fraction (log2)” value was -0.0883.
In the case of “HMEKDRDKRIRKRVLTALKRNDKKMTDKAFALLTSRIRDESILDQEVLKLIGYVGDRTTIDSKDINIVVAE”, the “soluble fraction (log2)” value was 0.0457.
For “HMNIVINVDTPTFEQMKATYQAPGTLPAGASFHAKLKGVTVTGYTKSHKVMFQGALANQEAARWQ”, the “soluble fraction (log2)” value was ≥ 0.43.
For “HMNVRRSRTHEKVTTYQGYDIFINKEPNQRGMFTSAPMRGDNEYSNLRGEGKSKQDAVNMTKEKIDEIAA”, the “soluble fraction (log2)” value was 0.229.
For “HMGNTTEVLVATQDVKANTKIKESMFTTERVDTASLPDNYLSADSAKDVVGYYTYIGFTKGSVISKSNIAT”, the “soluble fraction (log2)” value was 0.0364.
For “HMSPREDQQSRKQHILEAAAVLFAERGYYKTTTADVARAVGVTQPYVFHFFKSKEELYLAVL”, the “soluble fraction (log2)” value was 0.219.
For “HMEDNYYENKINYLFGYLDEADKEISVNSILDFHLAHRTNPEFVFEPKKNTNPLIWKYLSNSNLLY”, the “soluble fraction (log2)” value was 0.0187.
For “HMKLIPLTDMRGQLRSGAPLPWGVRDAQGNLLLGKGHVIASDDMLEALLARGMFVDAEEAKAARG”, the “soluble fraction (log2)” value was 0.105.
For “HMNYNEKGEYTRTLTSGSETAVMTYRNFGETLDVALFKNGVQTDSLRLIKSEPGVLYRQSNGQFEKI”, the “soluble fraction (log2)” value was -0.0181.
For “HMWKSEAGKKIIESLAQKYNKSNAQIILRWHIQMGYIVIPGARSENHIKENINIFDFKLTNEEINNILKLN”, the “soluble fraction (log2)” value was -0.124.
With “HMRISKRQLILESAAAIINEKGADYLTLDAVAQRAGISKGGLFYHFKSKDELIKELVNYANN” the “soluble fraction (log2)” value was -1.57.
For “HMRTSIWTAIAHSLRSDIGSGVYGPDDKLPTESALAARFGVNRHTVRHAIKALTDEGLVLPRRGAGVFVTS”, the “soluble fraction (log2)” value was -0.207.
In the case of “HMEARYQLREVSLDGLRSGMILNADVLSTDGVLMARKGLEVSGLLRSRLEAFAKMERIEPTFKVLVPIAPP”, the “soluble fraction (log2)” value was 0.284.
For “HMTEQLTLVGKTGVTTTDLRPSGKVEVDGKRYDAVADNGAFISKGAHIKVVRYVTGQVYVVPTD”, the “soluble fraction (log2)” value was -0.146.
With “HMKPSKTDEAEYWLMERLEEGPQPAGDLIRIGEEFGYTPKILRDAGERFNMERYKDGLDHWMWKLPN” the “soluble fraction (log2)” value was 0.349.
In the case of “HMQYDESSQLGERFLNQALNALKADPDKVGDAQWEKLLKENSAKSRQEVLADIGLGKQLAIVIARELLS”, the “soluble fraction (log2)” value was -0.37.
With “HMAGWMPGGTNPAEPGRFAVLMDVDDSDAYKHMFLRWNGHAWEFERTRVLVKMEPSWWMRLPDDPEKP” the “soluble fraction (log2)” value was -0.27.
In the case of “HMGLKDTEVYMPDVRGLIEEEAQTKLKASFLTMKVSYTSSDEVKKGYVISQAPSADSVVLKGASVTVIVS”, the “soluble fraction (log2)” value was 0.112.
With “HMAKRKYKSFKDVAEFAQKLGIKSSTEWWAYVRGHEIPSDIPKDPSTYYKKEWTTWGDFLGTGYVSSA” the “soluble fraction (log2)” value was ≥ 0.43.
For “HMNRIGERIKRKRELRNLNLGELAEKVGISASALSQIEKSKSFPSVITLKSIAEQLRTTVGELIGEN”, the “soluble fraction (log2)” value was 0.328.
With “HMKKYLIIDAANEKIIFKIIDNNKTYTNDYENSRKNFDRFAVLLFNFLNKNMISFDTIDKAL” the “soluble fraction (log2)” value was -0.19.
In the case of “HMERYLLRDNIPNALHGERLDRVIAIMTGLSRSAVSALIKSNQVLRNGQIAQSISEKVVEGDELEVHLEP”, the “soluble fraction (log2)” value was -0.465.
For “HMNDVLVGAIPESASGSRLDKVMPSVFPPYSRSQLQVWLKQGRILMGNGIPSPRLIVSGGEVLSLVVPELP”, the “soluble fraction (log2)” value was -0.244.
For “HMTSIISLAKARSIALQKVPGATSKNIHLSLDDEDDKQVYEGEIKYKQMEYVFEIDAKTGTFLKWTSERD”, the “soluble fraction (log2)” value was 0.185.
With “HMVDPRLRSLTPQERRILEHIAEGLTNRQIAEDMFLAEKTVKNYVTSILDKLGMDSRTQAAVYAATHPT” the “soluble fraction (log2)” value was -0.438.
With “HMEQPAPSTTVDILGGGRAALVTANRELGLALADDEIDYLTDSFTQLGRNPVDVELMMFAQA” the “soluble fraction (log2)” value was -0.224.
In the case of “HMSQQVVTDGVNLRLRYAPSPDAETYKWADGTNRHPEKGERFPYLGDIGDFYRIDYKGLVLYVSKQHTHL”, the “soluble fraction (log2)” value was -0.34.
With “HMSENMSQDLAQWYRLQQALHPNLDAPELWATDLTSQQRTVRDQLIQQWAQEKRDSLWSEISGD” the “soluble fraction (log2)” value was -0.618.
For “HMDETELLLQKAIATLPDKQRVVFNLKYFDEMKYEEMSELLETSVGALKASYHLAVKKIEQFFHDA”, the “soluble fraction (log2)” value was -0.241.
With “HMTVGEKIQKYRKDLDLSQEELGQKLLVSRQTISLWEKDQTVPTIDNLIRLREIFGVSVDEILGF” the “soluble fraction (log2)” value was -1.69.
For “HMGIEIKLLMSFMTDSGRKVSLFVTDPREDVTETEIKQVMDLIIEKNIFAPNGEDIVSAKEAKIVQT”, the “soluble fraction (log2)” value was -1.2.
In the case of “HMDTNEPFAQLQLRFTDPIQYDYEVIRPVVLFSQSVTDRSDETEMPRTTVREKARQFVTEGMLGLVDK”, the “soluble fraction (log2)” value was -0.216.
In the case of “HMEFDIDAAIHAALEPQAVMRAWFGHEGREYPEDFGVVFFRGWESFTHQEKVEAVRDAKKVLDRAVR”, the “soluble fraction (log2)” value was -1.17.
For “HMKILKQLEAIIEKEGLNESAKQFYLREISELDKEKQQEIINLVDKMEQAGFKNNLASAFSEVTEDIPQF”, the “soluble fraction (log2)” value was -0.518.
With “HMSLIDYLNELMNEKNITVAQVAKNSGIGEYVYKIFNGERNAKRDTLVAISFGMHLNFEETQLLLRIA” the “soluble fraction (log2)” value was -0.98.
In the case of “HMKFDVNAAIRAVLNVTVDKGATLERIMKETNLTSDQLVLPIALLMKTERLHFKRSGTHEVYVSVGKAPDK”, the “soluble fraction (log2)” value was -0.0868.
In the case of “HMFDNPLSERDKEILNHISMGKSNKEIANQVGLAEQTIKNTISVILDKTFTSNRAQAASMATKNKW”, the “soluble fraction (log2)” value was -0.0659.
With “HMLNSISIKTNKKIDFLEKNEHLVNFVYEKETMEHIYNLSYENKKDLQELQNKLSDIEGIIKINTDL” the “soluble fraction (log2)” value was -2.18.
With “HMSSIHQDAKQQLHEYIRTYIQPLMRAGKQVTVWDIIGHVTIRKPKLVQKIGTQQLINMVQDLLE” the “soluble fraction (log2)” value was -0.302.
In the case of “HMETWKLYKRAYKKYYARYMKGNMSEADFKAWATQAAADRDAAIEQITPEIDAALKAQIIEQLREKLNR”, the “soluble fraction (log2)” value was -0.134.
In the case of “HMSFMPDPSIHDAITYTVRSGDYLGKISTTFGVKVSDLQKWNSIKSNIIYPGQKLTVWVSSNKRESLQ”, the “soluble fraction (log2)” value was 0.194.
With “HMLAFDKDDSGAVAEIILVLGRYWMDFSHKKYPAAEGVALRHKGLSHIFTVLRPYLSTPASELIGERLRR” the “soluble fraction (log2)” value was 0.22.
In the case of “HMGMTRPLFVTDPGLVRIGLVSPIFEKLGSGKLSPQLFDQVKEDPPEQTVFDGVEFARETGIDGVIGFG”, the “soluble fraction (log2)” value was 0.0343.
In the case of “HMSKTQYTFREVGSQFELHAPSTNHKIMVDANHPKYGWLSSQEAGRVINVYESGKMTSSQDYYGLYKQS”, the “soluble fraction (log2)” value was -0.427.
For “HMLGKNEAKEYKVAYGDIGKMPALIMGLVPLPKPPVVDERLRTLYVTATPEQHREIEAIMNRI”, the “soluble fraction (log2)” value was -0.306.
For “HMKTSVGSKMMVMANNLSIRKSANLLSEKLADLSKGDMVEYISSTNGWNKVRYNGYVGYVSSYYLKDTGEV”, the “soluble fraction (log2)” value was 0.375.
For “HMEQVPEAVGRRVRQARSDRGWTLDQLAERSEVSRRMIVNVEAGTSNASIATLLRLATALNVGLAELVA”, the “soluble fraction (log2)” value was -0.685.
In the case of “HMAEQDILQSVYPHIGGQDNVSRTISRNGTLYLMLKDASAVDLKAVKQVPGIADAALERGRLTLQLEE”, the “soluble fraction (log2)” value was -0.0819.
In the case of “HMVTKTTYAYERLKREIMDGTLGQGEKLVVNAISQRYQVSPMPIREALLKLEQEGLVQSAPHRGAWVHK”, the “soluble fraction (log2)” value was 0.0193.
With “HMDISPAAKQRLALIQPLLEKNAEAITDRKLRNAVAKDIANNQNTTVRRVLRLYYRYLATGQVM” the “soluble fraction (log2)” value was 0.158.
For “HMVSATKAFVNGGNIVVSSPKATRVAVYNVAGQKVAEQAFAGKATIKASDFAKGIYVLKFNDNTVLKLT”, the “soluble fraction (log2)” value was -0.0226.
In the case of “HMEFQEQLYRLRKQAGLSQEELSHIIGVSRQAVQKWEAGSARPDLDNLIALASHFKLSLDQLVGLT”, the “soluble fraction (log2)” value was -0.125.
In the case of “HMGTRYVEFVIPGTGNHEVRIVSSNGSRQNVEVAGTYPGGARLRTKVDNGVRRVSFYVDNRLVEEKQ”, the “soluble fraction (log2)” value was -0.0183.
With “HMIAVSQEQIKQIIVDDPSFHDANGKFSQALLTQYLNQRRMSEDQFVEEIRDQFLFQNLQNLVQNG” the “soluble fraction (log2)” value was -0.623.
In the case of “HMLPDVSITGHIFIRSGSRLNRIFVGESTYHVGDMLDGKWLIESINSDSLELRSGTQTTELPL”, the “soluble fraction (log2)” value was -0.066.
With “HMHLRYTYIYDNENRVTSKEASKWDSTQEAWVPYFKMNVSYVNNEVELSYARWNSKSNAYDSSIKKTI” the “soluble fraction (log2)” value was -0.66.
With “HMDPERVVGQTGIVHLRIPARQHNTGKVMIEVQGSLREFDAVSEAEEIPTGTPILIVGRTEEGVFIAQPF” the “soluble fraction (log2)” value was -0.823.
In the case of “HMRPTYRTRLEVLINNPAISGRDLDFAQSLLSYYERKGRLSAGRVKWVTTLEERYSPENLAASAAK”, the “soluble fraction (log2)” value was -0.306.
With “HMSSDEEQLATLTRLLQKQEQIIQTLGPRNPMVSLQQYANTITKVIEMAGFKDTSQFINSQIP” the “soluble fraction (log2)” value was -0.0429.
For “HMPTLNIVDGHIAASDGVRILSIHNVTGRRYATSSKLPAGIYIVVLMPAKAETPLTVKVIVEA”, the “soluble fraction (log2)” value was -0.17.
For “HMDRSAQVLFLEHARSRLPQRIQWAEELAELLSIGIDSAYRRIRGETALTFNEAVSVSRKYDISLDYLFK”, the “soluble fraction (log2)” value was -1.4.
For “HMPLITLSAEIQSEQIGQRLDQTLAELFPEYSRSRLKTWIEADLVKLNNQIVNIPREKVLGGEHVEITVDI”, the “soluble fraction (log2)” value was -0.792.
In the case of “HMPEVTMSYSARNQVVSFSKATQYEIVDEFGTVVLRGVGNQATLRYLSRGDYFVNFGAGTEVLKK”, the “soluble fraction (log2)” value was 0.089.
For “HMQIKEVDYGTFISMTEDGEIGRVEIQQQENTILFTDEDETAVYKTAMVEDDQLTQRLYDAGISFYGEE”, the “soluble fraction (log2)” value was -0.784.
